From patent US20110207796

Experiments:
[1] = test system: alpha-synuclein A53T familial mutant
[2] = test system: alpha-synuclein A30P familial mutant
[3] = test system: alpha-synuclein E46K familial mutant
[4] = biological target: beta synuclein (UniProt Q16143)
[5] = test system: human alpha-synuclein (wild-type, recombinant)

Sequence of Polo like kinase 2 (PLK2) (chain): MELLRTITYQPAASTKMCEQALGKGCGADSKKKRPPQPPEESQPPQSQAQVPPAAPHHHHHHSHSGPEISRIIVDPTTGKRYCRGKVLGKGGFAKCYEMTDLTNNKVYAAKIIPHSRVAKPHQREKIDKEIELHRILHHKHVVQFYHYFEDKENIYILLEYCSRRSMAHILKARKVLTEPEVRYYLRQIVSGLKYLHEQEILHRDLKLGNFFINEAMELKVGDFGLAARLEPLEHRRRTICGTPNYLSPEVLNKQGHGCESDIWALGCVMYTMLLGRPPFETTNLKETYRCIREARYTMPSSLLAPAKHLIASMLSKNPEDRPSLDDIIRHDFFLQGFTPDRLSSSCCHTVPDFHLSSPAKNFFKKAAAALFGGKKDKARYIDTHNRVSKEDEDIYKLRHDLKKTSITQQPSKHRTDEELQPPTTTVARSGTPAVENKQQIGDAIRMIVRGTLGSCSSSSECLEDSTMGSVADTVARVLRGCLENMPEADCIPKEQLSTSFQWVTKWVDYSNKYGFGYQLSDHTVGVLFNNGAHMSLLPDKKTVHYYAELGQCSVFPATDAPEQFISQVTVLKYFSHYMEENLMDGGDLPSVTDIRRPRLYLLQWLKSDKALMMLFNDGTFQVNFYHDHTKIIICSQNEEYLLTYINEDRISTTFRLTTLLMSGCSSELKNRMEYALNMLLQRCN
Sequence of beta synuclein (Q16143 whole entry): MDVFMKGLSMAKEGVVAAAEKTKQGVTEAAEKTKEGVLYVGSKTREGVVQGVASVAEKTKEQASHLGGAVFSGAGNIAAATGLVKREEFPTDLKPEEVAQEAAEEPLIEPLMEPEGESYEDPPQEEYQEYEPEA

Row | Substance | in vitro phosphorylation, autoradiography [1] | in vitro phosphorylation, autoradiography [2] | in vitro phosphorylation, autoradiography [3] | in vitro phosphorylation, autoradiography [4] | Fold Change in Percent Synuclein Phosphorylation (ELISA, HEK-293 overexpression) [5] [fold] | Proportion of total synuclein that is phoshorylated at ser-129 (ELISA, HEK-293 overexpression) [5] [%] | S129 phosphorylation, immunoblot (mAb 11A5), kinase:rAS 1:200 molar [5] | S129 phosphorylation, immunoblot (mAb 11A5), rank of signal [5] | in vitro biochemical assay, phosphorylation of synuclein [5] | in vitro kinase reaction, phosphorylation of alpha-synuclein at serine 129 [5] | in vitro phosphorylation, autoradiography [5] | phospho ser-129 in vitro, kinases normalized for molarity [5] | phosphorylation of alpha-synuclein at S129 on co-expression in bacteria, mass spectrometry [5] | S87 phosphorylation, immunoblot (pAb ELADW-110), kinase:rAS 1:200 molar [5] | S129 phosphorylation in vitro, kinases normalized by activity units [5]
1 | Polo like kinase 2 (PLK2) | the mutant alpha-synucleins were phosphorylated more at a given concentration (especially at lower concentrations) than WT | the mutant alpha-synucleins were phosphorylated more at a given concentration (especially at lower concentrations) than WT | the mutant alpha-synucleins were phosphorylated more at a given concentration (especially at lower concentrations) than WT | minimally against beta synuclein | 21.2 | 42.3 | Prominent signals came from GRK6, CKI, CKII and PLK2 | CKI>GRK6>PLK2>GRK4>GRK5>GRK2 | PLK2 and PLK3 having extremely robust phosphorylation of synuclein | capable of phosphorylating alpha-synuclein specifically at serine 129 and did not phosphorylate serine 87 in vitro | PLK2 was found to be more active against wild-type alpha synuclein than beta synuclein | roughly equivalent levels of phospho ser-129 between CKI, GRK6 and PLK2 | more than 95% phosphorylated |  | 
2 | casein kinase I (CKI) |  |  |  |  |  |  | Prominent signals came from GRK6, CKI, CKII and PLK2 | CKI>GRK6>PLK2>GRK4>GRK5>GRK2 |  |  |  | roughly equivalent levels of phospho ser-129 between CKI, GRK6 and PLK2 |  | A signal was detected only with CKI phosphorylation | CKI gave a modest signal
3 | casein kinase 2 (CKII) |  |  |  |  |  |  | Prominent signals came from GRK6, CKI, CKII and PLK2 |  |  |  |  |  |  |  | CKII was not detectable
